Experimental data taken from IntAct's records for PubMed 21360678.

B1: Serine/threonine-protein phosphatase 5 (Homo sapiens), P53041 (parent)
chain: MAMAEGERTECAEPPRDEPPADGALKRAEELKTQANDYFKAKDYENAIKFYSQAIELNPSNAIYYGNRSLAYLRTECYGYALGDATRAIELDKKYIKGYYRRAASNMALGKFRAALRDYETVVKVKPHDKDAKMKYQECNKIVKQKAFERAIAGDEHKRSVVDSLDIESMTIEDEYSGPKLEDGKVTISFMKELMQWYKDQKKLHRKCAYQILVQVKEVLSKLSTLVETTLKETEKITVCGDTHGQFYDLLNIFELNGLPSETNPYIFNGDFVDRGSFSVEVILTLFGFKLLYPDHFHLLRGNHETDNMNQIYGFEGEVKAKYTAQMYELFSEVFEWLPLAQCINGKVLIMHGGLFSEDGVTLDDIRKIERNRQPPDSGPMCDLLWSDPQPQNGRSISKRGVSCQFGPDVTKAFLEENNLDYIIRSHEVKAEGYEVAHGGRCVTVFSAPNYCDQMGNKASYIHLQGSDLRPQFHQFTAVPHPNVKPMAYANTLLQLGMM
partner: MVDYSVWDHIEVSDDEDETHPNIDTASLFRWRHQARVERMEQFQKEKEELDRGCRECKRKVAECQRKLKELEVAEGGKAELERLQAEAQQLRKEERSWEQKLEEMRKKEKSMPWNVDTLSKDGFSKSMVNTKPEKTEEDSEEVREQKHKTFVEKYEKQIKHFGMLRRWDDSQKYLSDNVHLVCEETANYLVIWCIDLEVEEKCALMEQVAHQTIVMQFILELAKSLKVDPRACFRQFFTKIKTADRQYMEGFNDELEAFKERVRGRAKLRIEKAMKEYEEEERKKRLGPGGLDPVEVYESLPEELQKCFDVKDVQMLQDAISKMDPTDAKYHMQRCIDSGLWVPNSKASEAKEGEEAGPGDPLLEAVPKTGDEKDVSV

Variants of: B1
Settings: with cdc37_human CDC37, Q16543

effect of a mutation on the interaction	Variant
disrupting interaction	K97A;R101A
